Tested on: MS2 coat protein
Test: apparent KD of MS2 coat protein; designed switch direction (-1 OFF switch, 1 ON switch): -1; higher = weaker reporter binding
Outline: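 SNAP-549-labelled MS2 coat protein was titrated, doubling from 0.7 or 1.5 nM to 3 µM, over designed RNA switches transcribed on Illumina chips by stalled E. coli RNA polymerase. Runs were done without input, with 200 uM small-molecule ligand, or with an oligonucleotide input. Apparent KD is the per-design median over clusters of curve-fitted normalised fluorescence.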

[1] = input ligand: microRNA oligo, concentration not stated

| Sequence | apparent KD of MS2 coat protein (input ligand: FMN 200 uM) | apparent KD of MS2 coat protein [1] | apparent KD of MS2 coat protein (input ligand: none) | apparent KD of MS2 coat protein (Eterna round: R95, input ligand: FMN 200 uM) | apparent KD of MS2 coat protein (Eterna round: R95, input ligand: microRNA oligo, concentration not stated) | apparent KD of MS2 coat protein (Eterna round: R95, input ligand: none) |
| --- | --- | --- | --- | --- | --- | --- |
| ACAUGAGGAUCACCCAUGUGGACGUAAUGGCUCAUGUAGAGUGAGGAUAUGUGAGACGAACGAGAACAGAAGGCACAAGACAGG [Deportation 7 - Jieux - Exclusion NG 3] (Eterna round: R96, puzzle: Exclusion NG 3) | 26.3 nM | 14.5 nM | 22.1 nM | – | – | – |
| ACUCAACAGUAGGAUAUCAUCAAACUAUUGUGAUGAGAAGGACUGACAUGAGGAUCACCCAUGUUAACGUGAAG [Mod of Brourd 3 - Jieux - Exclusion 6] (Eterna round: R97, puzzle: Exclusion 6) | 41.8 nM | – | 28.4 nM | – | – | – |
| UAUAUAUAGUAAGGAUAUGUAUUAAUAUUAUAAACAGAAGGUACUGACAUGAGGAUCACCCAUGUUUUAGUGUGGGCAUGUAGA [JMF's solution 77] (Eterna round: R96, puzzle: Exclusion NG 1) | – | 66.8 nM | – | – | – | – |
| GCUUAACAUGAGGAUCACCCAUGUUAGGAUAUGCGAACUCGUAAGAUGCAGGGAGAUUGCAGAAGGAACGUGGC [EX1 C.15] (Eterna round: R97, puzzle: Exclusion 1) | 22 nM | – | 18.2 nM | – | – | – |
| GGUCAUCAAGUCAGGAUAUCGUCUAAUCAAUCAGGCGAGAAGGGACAUGAGGAUCACCCAUGUCGACUCAUCAG [Ex4 #6] (Eterna round: R97, puzzle: Brourd's mod of Exclusion 4) | 130 nM | – | 33.5 nM | – | – | – |
| GUGUUACAUGAGGAUCACCCAUGUGAGGAUAUGAGUCAGUCACGGUGACGUGGCUGACUCAGAAGGCACAAAGG [Mat - Exclusion 1 - JL Mod - D39] (Eterna round: R97, puzzle: Exclusion 1) | 291 nM | – | 93.9 nM | – | – | – |
| GGGAUGUCAGGAUAUGAUUAGCACGGCGGUAGCCGCGUUACUUAGAAGGGACAUGAGGAUCACCCAUGUACCGA [EX4 B.6] (Eterna round: R97, puzzle: Exclusion 4) | 18.6 nM | – | 16.9 nM | – | – | – |
| UUCGUGCUGCUUUGCUGUACGAGUACAUGAGGAUCACCCAUGUAGGAUAUGGUACGCUUUGCGUGCUAGAAGGAUAUGUGUUGC [salish99_ExNG3_r04_506] (Eterna round: R96, puzzle: Exclusion NG 3) | 24.6 nM | 16.9 nM | 24 nM | – | – | – |
| GUAGAGUAAGGAUAUACUGAAUAGGAUAGAAUGGUUAGAAAGUAGAAGGUACAUGAGGAUCACCCAUGUAAUGU [Excluse me!!!! 19 - Jieux - Exclusion 4] (Eterna round: R96, puzzle: Exclusion 4) | 20.9 nM | 18.6 nM | 24 nM | – | – | – |
| UAUUACGCAAGCAGGUCCCACAUGAGGAUCACCCAUGUGCUCGUCUUAUAACGAUCUGUGGGAAAACCUACGGAUCG [Elimod 19 - Jieux - Sensor, turn-off variant 1] (Eterna round: R97, puzzle: Sensor, turn-off variant 1) | 45.8 nM | – | 48.4 nM | – | – | – |
| UUUUUCGGACAAGCUACGUACAUGAGGAUCACCCAUGUCGGUAGAUUUGAGUAGGUUUGGAUGGAAGCUCGUCUUAU [JR_SV3TOV1_Sub084] (puzzle: Sensor v3, turn-off variant 1) | – | – | – | 40.9 nM | 53.5 nM | 53.2 nM |
| ACAUGACUGCUAGGAUAUAGAUGACAUGAGGAUCACCCAUGUUAUCCCAUGUUGACGGAAACCGACUAGAAGGAGCAACAUAUG [Ex NG2 #8] (Eterna round: R96, puzzle: Exclusion NG 2) | 64.7 nM | 30.6 nM | 46.5 nM | – | – | – |
| CCAACCAGAGGAUAUGCGCAUAGAUCAGACUUUGUUUCUGAACAUGAGGAUCACCCAUGUAGAAGGCUGUAACC [Ex2 #86] (Eterna round: R97, puzzle: Exclusion 2) | 26 nM | – | 27.3 nM | – | – | – |
